Sequences and labels used below:
T1: IL1R1/CD121a (Sino biological, 10126-H08H) (UniProt P14778 18-332)
T1 construct: Bought protein
T1 sequence (looked up): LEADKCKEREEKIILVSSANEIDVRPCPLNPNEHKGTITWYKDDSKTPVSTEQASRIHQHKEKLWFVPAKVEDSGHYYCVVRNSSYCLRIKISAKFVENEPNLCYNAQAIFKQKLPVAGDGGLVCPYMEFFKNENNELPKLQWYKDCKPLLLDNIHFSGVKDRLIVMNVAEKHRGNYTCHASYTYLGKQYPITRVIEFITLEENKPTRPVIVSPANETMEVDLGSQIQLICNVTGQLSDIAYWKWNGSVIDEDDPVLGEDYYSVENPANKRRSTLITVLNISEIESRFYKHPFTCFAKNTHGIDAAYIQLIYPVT

T2: IL1R3/IL1RAP (Sino biological, 10121-H08H) (UniProt Q9NPH3 21-359)
T2 construct: Bought protein
T2 sequence (looked up): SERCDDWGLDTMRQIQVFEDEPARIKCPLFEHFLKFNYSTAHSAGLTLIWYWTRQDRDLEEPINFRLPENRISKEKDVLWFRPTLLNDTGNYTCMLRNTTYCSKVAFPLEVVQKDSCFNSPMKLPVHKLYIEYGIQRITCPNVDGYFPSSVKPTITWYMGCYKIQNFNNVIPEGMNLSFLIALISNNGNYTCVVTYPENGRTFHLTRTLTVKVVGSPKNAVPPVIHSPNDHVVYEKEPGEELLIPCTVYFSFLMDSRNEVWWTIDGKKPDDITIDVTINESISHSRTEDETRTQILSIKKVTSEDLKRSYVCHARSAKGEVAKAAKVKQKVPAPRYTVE

T3: IL1R7/IL-18RAcP (Sino biological, 10176-H08H) (UniProt O95256 20-356)
T3 construct: Bought protein
T3 sequence (looked up): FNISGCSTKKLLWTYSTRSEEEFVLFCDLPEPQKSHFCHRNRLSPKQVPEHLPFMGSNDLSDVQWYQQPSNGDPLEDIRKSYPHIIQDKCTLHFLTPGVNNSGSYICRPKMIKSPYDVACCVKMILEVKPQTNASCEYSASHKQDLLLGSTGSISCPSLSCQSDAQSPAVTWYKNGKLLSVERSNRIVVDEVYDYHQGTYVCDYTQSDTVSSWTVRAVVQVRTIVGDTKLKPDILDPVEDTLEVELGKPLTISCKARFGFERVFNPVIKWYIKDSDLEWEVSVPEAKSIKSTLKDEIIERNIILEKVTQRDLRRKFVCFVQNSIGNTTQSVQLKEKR

T4: IL1R8/IL1RAPL1 (Sino biological, 10177-H08H) (UniProt Q9NZN1 19-357)
T4 construct: Bought protein
T4 sequence (looked up): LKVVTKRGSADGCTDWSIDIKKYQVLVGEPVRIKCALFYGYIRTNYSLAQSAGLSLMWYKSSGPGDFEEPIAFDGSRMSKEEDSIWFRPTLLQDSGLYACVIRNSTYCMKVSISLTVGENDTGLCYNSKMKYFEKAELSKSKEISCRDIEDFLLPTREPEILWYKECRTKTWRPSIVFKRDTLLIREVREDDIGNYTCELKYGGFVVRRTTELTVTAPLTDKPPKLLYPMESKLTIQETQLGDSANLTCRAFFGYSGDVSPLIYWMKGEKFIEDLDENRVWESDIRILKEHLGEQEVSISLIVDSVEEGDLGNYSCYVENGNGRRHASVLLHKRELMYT

T5: IL1R9/IL1RAPL2 (Sino biological, 10156-H08H) (UniProt Q9NP60 17-354)
T5 construct: Bought protein
T5 sequence (looked up): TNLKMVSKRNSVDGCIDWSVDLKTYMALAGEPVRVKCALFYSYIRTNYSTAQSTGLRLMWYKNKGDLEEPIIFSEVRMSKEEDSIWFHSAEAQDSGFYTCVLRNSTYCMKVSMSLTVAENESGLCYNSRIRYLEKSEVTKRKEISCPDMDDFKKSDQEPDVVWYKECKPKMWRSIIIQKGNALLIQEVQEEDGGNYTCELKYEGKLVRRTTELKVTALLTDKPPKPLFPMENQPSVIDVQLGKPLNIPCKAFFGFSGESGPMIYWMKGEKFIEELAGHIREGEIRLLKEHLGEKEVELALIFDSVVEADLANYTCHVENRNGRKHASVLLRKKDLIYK

B1: RG6149 (antibody Ab2 in CN104334582, prepared in-house) (antibody, human IgG2, kappa, V domains shown)
VH: EVQLVQSGAEVKKPGESLKISCKGSGYSFTNYWIGWVRQMPGKGLEWMGIIYPGNSDTRFSPSFQGQVTISADKSITTAYLQWSSLKASDTAMYYCARHGTSSDYYGLDVWGQGTTVTVSS
VL: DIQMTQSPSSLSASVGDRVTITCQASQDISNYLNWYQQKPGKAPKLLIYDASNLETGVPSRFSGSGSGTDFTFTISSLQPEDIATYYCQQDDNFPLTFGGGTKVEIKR
notes: Control anti-ST2 antibody
B2: GSK3772847 (antibody STLM208 in CN104411333, prepared in-house) (antibody, human IgG2, kappa, V domains shown)
VH: EVQLLESGGGLVQPGGSLRLSCAASGFTFSIYDMIWVRQAPGKGLEWVSSIRGEGGGTYYADSVKGRFTISRDNSKNTLYLQMNSLRAEDTAVYYCARDPWSTEGSFFVLDYWGQGTLVTVSS
VL: EIVLTQSPATLSLSPGERATLSCRASQSVDDDLAWYQQKPGQAPRLLIYDASNRATGIPARFSGSGSGTDFTLTISSLEPEDFAVYYCQQYITAPLTFGQGTKVEIKR
notes: Control anti-ST2 antibody
B3: Humanized 31C8-1.1 (antibody, human IgG2, kappa, V domains shown)
VH: EVQLVQSGAEVKKPGATVKISCKASGYIFIDSEMHWVQQAPGKGLEWMGAIDPETGDTVYAEKFQGRVTITADKSSSTAYMELSSLRSEDTAVYYCTGSTTDYYFAYWGQGTLVTVSS
VL: DIQMTQSPSSLSASVGDRVTITCRSSKSLLHSNGIIYLYWYQQKPGKAPKLLIYQLSNLASGVPSRFSSSGSGTDFTLTISSLQPEDFATYYCAQNLELPFTFGQGTKVEIKR
notes: also called hz31C8-1.1; hz31C81-1.1
B4: Humanized 31C8-1.2 (antibody, human IgG2, kappa, V domains shown)
VH: B3 VH with E1Q, E10K, E62K, Q65K
VL: B3 VL
notes: also called hz31C8-1.2; hz31C81-1.2
B5: Chimeric 31C8 (antibody, human IgG2, kappa, V domains shown)
VH: QVQLQQSGPELVRPGASVTLSCKASGYIFIDSEMHWVKQTPVHGLEWIGAIDPETGDTVYNQKFKGKATLTADKSSSTASMELSSLTSEDSAVYYCTGSTTDYYFAYWGQGTTLTVSS
VL: DIVMTQAAFSNPVTLGTSASISCRSSKSLLHSNGIIYLYWYLQKPGQSPQLLIYQMSNLASGVPDRFSSSGSGTDFTLRISRVEAEDVGVYYCAQNLELPFTFGSGTKLEIKR
notes: also called xi31C8

Positions count from the first letter of the chain named.

The target of the first assay is T1, IL1R1/CD121a (Sino biological, …). Put plainly: ELISA, plate coated with 2 µg/mL receptor. How it is done:
(§1) The anti-ST2 antibodies were diluted with PBS buffer to a concentration of 1.5 mg/mL. After being treated at 72° C. for 5 min, the samples were assayed by ELISA for their binding activity for an antigen The ELISA procedure is as follows: A 96-well plate was coated with 2 µg/mL hST2-ECD-mFc as the antigen at 100 µL/well and incubated at 4° C. overnight. After the antigen not adsorbed was well washed off, the non-specific binding sites were blocked with a blocking buffer (PBST containing 1% bovine serum albumin). After the plate was washed three times with a washing buffer (PBST, PBS containing 0.05% (v/v) Tween 20), the anti-ST2 antibodies (serially diluted 3-fold from an initial concentration of 1.5 µg/mL to 8 concentrations) were added at 100 µL/well, and the plate was incubated at 37° C. for 1 h. […] After the plate was incubated at room temperature for 5 min, a stop solution (2 N H₂SO₄) was added to stop the reactions. The signals were read at 450 nm using a plate reader (PE, Envision). The data were analyzed using GraphPad Prism5, and the EC₅₀ values were calculated.
(§2) ST2 belongs to the IL1R receptor family. The cross-reactivity of the anti-ST2 antibodies with the IL1R family receptors was determined by ELISA. The IL1R family receptors include IL1R⅟CD121a (Sino biological, 10126-H08H), IL1R2/CD121b (Sino biological, 10111-H08H), IL1R3/IL1RAP (Sino biological, 10121-H08H), IL1R7/IL-18RAcP (Sino biological, 10176-H08H), IL1R8/IL1RAPL1 (Sino biological, 10177-H08H), and IL1R9/IL1RAPL2 (Sino biological, 10156-H08H). ELISA assays were performed using the proteins described above as antigens (2 µg/mL). See Example 13 for the specific ELISA procedure. No binding means that the antibody remains unbound to the antigen when at the highest concentration.
Background: In an ELISA, binding on a coated surface is turned into a signal by an enzyme label.
B1: the binding result is reported as “no binding”.
Regarding B2, the binding result is given as “no binding”.
Same read-out and setting: the value for B3 was “no binding”; that for B4 was “no binding”.
B5: the binding result is “no binding”.

A further assay concerns the target T2, IL1R3/IL1RAP (Sino biological, …). Put plainly: ELISA, plate coated with 2 µg/mL receptor. How it is done: as §1, §2
For B1, the binding result is “no binding”.
The same measure, in the same setting: the value for B2 was “no binding”; that for B3 was “no binding”.
Turning to B4, the binding result was “no binding”.
For B5, the binding result is recorded as “no binding”.

A further assay concerns the target T3, IL1R7/IL-18RAcP (Sino biological, …). Put plainly: ELISA, plate coated with 2 µg/mL receptor. How it is done: as §1, §2
Take B1: the binding result is “no binding”.
Same read-out and setting: the value for B3 was “no binding”; that for B4 was “no binding”; that for B5 was “no binding”.

The target in the next assay is T4, IL1R8/IL1RAPL1 (Sino biological, …). Description: ELISA, plate coated with 2 µg/mL receptor. As to the method: as §1, §2
As to B1, the binding result is on record as “no binding”.
Same read-out and setting: next, B2: “no binding”.
The same measure, in the same setting: next, B3: “no binding”; B4: “no binding”.
With B5, the binding result is recorded as “no binding”.

In the next assay the target is T5, IL1R9/IL1RAPL2 (Sino biological, …). Put plainly: ELISA, plate coated with 2 µg/mL receptor. How it is done: as §1, §2
As for B1, the binding result is “no binding”.
Turning to B2, the binding result is reported as “no binding”.
Take B3: the binding result is “no binding”.
The same measure, in the same setting: next, B4: “no binding”; B5: “no binding”.

Values taken from US20230272086A1 (CHIA TAI TIANQING PHARMACEUTICAL GROUP, published 2023).
